How the values were obtained:
[1] = molecular target: T1, His-HupS acetylated in vitro (+AcP) (Streptomyces venezuelae) (UniProt F2R5C9); experiment: BLI; conditions: 1 mM Mg2+; lysine-acetylated; BLI: 100 mM Tris-HCl pH 8.0, 200 mM NaCl, 1 mM MgCl2, 0.005% Tween-20, 0.1 mg/ml BSA, 30 C; EMSA: 50 mM Tris-HCl pH 8.0, 150 mM NaCl, 0.02% Tween-20, 10 mM Mg …
T1 sequence: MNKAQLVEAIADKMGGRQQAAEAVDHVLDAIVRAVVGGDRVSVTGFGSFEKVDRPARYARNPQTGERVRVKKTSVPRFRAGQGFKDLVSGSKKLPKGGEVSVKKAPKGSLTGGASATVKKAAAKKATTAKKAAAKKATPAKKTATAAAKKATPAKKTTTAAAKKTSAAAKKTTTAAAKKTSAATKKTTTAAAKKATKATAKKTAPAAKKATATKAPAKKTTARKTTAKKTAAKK

[2] = molecular target: T2, His-HupS (nonacetylated, -AcP) (Streptomyces venezuelae) (UniProt F2R5C9); experiment: BLI; conditions: 1 mM Mg2+; BLI: 100 mM Tris-HCl pH 8.0, 200 mM NaCl, 1 mM MgCl2, 0.005% Tween-20, 0.1 mg/ml BSA, 30 C; EMSA: 50 mM Tris-HCl pH 8.0, 150 mM NaCl, 0.02% Tween-20, 10 mM Mg …
T2 sequence: T1 sequence

With one-end biotinylated dsDNA 300 bp the Kd [1] was 28.6 nM and the Kd [2] was 17.4 nM.
two-ends biotinylated dsDNA 300 bp was tested, and the Kd [1] was 20 nM and the Kd [2] was 11.3 nM.

From publication PMC11229371, “The activity of CobB1 protein deacetylase contributes to nucleoid compaction in Streptomyces venezuelae spores by increasing HupS affinity for DNA” (Nucleic Acids Research, 2024)
